Experimental data published in patent US20260250322A1, “NEW PEPTIDES AS SELECTIVE IL-23 RECEPTOR INHIBITORS” (SANOFI, priority 2023, published 2026).
Numbered stars: 1 amine (or outer) side, 2 acyl side, 3 side chain; on linkers, the order of the positions; unused ones are H or OH. Bridge positions count the residues as written; N and C are the ends. Square brackets hold non-standard residues; d marks the D form. Primed or numbered codes have the meaning given here. Tyr(Me) = Yme = 4-methoxy-L-phenylalanine (O-methyl-tyrosine), COc1ccc(C[C@H](N[*:1])C(=O)[*:2])cc1; Tyr(Me)″ = O-methyl-tyrosine (4-methoxy-phenylalanine), COc1ccc(C[C@H](N[*:1])C(=O)[*:2])cc1; 1Nal = N[C@@H](Cc1cccc2ccccc12)C(=O)O; 2Nal = N[C@@H](Cc1ccc2ccccc2c1)C(=O)O; AEF = NCCOc1ccc(C[C@H](N)C(=O)O)cc1; Cit = NC(=O)NCCC[C@H](N)C(=O)O; Orn = NCCC[C@H](N)C(=O)O; Aib = CC(C)(N)C(=O)O

T1: IL-23 receptor on the surface of HEK-Blue IL-23 cells (UniProt Q5VWK5 24-629, limits assumed)
T1 sequence (looked up): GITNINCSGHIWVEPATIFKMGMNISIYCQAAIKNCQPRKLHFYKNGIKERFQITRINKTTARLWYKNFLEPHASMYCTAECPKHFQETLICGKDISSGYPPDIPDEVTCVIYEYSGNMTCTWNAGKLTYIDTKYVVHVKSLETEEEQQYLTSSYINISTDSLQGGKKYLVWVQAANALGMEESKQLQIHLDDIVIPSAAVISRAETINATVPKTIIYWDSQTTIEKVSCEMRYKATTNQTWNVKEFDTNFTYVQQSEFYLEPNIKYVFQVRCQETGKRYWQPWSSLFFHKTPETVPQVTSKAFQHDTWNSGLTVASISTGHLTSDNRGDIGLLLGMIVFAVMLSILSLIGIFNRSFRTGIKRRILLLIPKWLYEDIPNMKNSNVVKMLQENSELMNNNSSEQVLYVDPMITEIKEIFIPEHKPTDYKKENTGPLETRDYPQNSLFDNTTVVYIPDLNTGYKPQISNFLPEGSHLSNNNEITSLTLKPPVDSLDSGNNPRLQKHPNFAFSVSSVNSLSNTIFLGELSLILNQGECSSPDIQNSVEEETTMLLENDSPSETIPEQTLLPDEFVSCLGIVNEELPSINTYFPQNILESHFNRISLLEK

T2: recombinant human IL-23R-Fc chimera (human, UniProt Q5VWK5 24-353, limits assumed)
T2 construct: Recombinant reagent; also called interleukin-23 receptor; not shown: detected with goat anti-hu-IgG1-HRP antibody
T2 sequence (looked up): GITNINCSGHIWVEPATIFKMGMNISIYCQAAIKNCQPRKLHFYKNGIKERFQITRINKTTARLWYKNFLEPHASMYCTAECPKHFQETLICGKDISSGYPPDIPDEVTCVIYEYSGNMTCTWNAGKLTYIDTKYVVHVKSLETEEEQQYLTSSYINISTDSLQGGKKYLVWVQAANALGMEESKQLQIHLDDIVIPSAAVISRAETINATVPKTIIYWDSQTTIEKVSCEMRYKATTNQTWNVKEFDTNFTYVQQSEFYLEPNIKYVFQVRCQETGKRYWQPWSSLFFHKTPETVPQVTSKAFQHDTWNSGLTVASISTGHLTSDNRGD

B1: peptide compound SEQ ID NO: 14 (peptide)
peptide: Ac-[dK]NTWQRY[1Nal][Aib]DNN-NH2
modifications: lactam 1-10
SMILES: CC(=O)N[C@@H]1CCCCNC(=O)C[C@@H](C(=O)N[C@@H](CC(N)=O)C(=O)N[C@@H](CC(N)=O)C(N)=O)NC(=O)C(C)(C)NC(=O)[C@H](Cc2cccc3ccccc23)NC(=O)[C@H](Cc2ccc(O)cc2)NC(=O)[C@H](CCCNC(=N)N)NC(=O)[C@H](CCC(N)=O)NC(=O)[C@H](Cc2c[nH]c3ccccc23)NC(=O)[C@H]([C@@H](C)O)NC(=O)[C@H](CC(N)=O)NC1=O
notes: synthetic macrolactam
B2: peptide compound SEQ ID NO: 9 (peptide)
peptide: Ac-KNTWQR[Tyr(Me)″][1Nal][Aib]DNN-NH2
modifications: lactam 1-10
SMILES: COc1ccc(C[C@@H]2NC(=O)[C@H](CCCNC(=N)N)NC(=O)[C@H](CCC(N)=O)NC(=O)[C@H](Cc3c[nH]c4ccccc34)NC(=O)[C@H]([C@@H](C)O)NC(=O)[C@H](CC(N)=O)NC(=O)[C@@H](NC(C)=O)CCCCNC(=O)C[C@@H](C(=O)N[C@@H](CC(N)=O)C(=O)N[C@@H](CC(N)=O)C(N)=O)NC(=O)C(C)(C)NC(=O)[C@H](Cc3cccc4ccccc34)NC2=O)cc1
notes: synthetic macrolactam
B3: peptide compound SEQ ID NO: 26 (peptide)
peptide: Ac-[dK]NTWQR[Tyr(Me)][2Nal][Aib]DN-NH2
modifications: lactam 1-10
SMILES: COc1ccc(C[C@@H]2NC(=O)[C@H](CCCNC(=N)N)NC(=O)[C@H](CCC(N)=O)NC(=O)[C@H](Cc3c[nH]c4ccccc34)NC(=O)[C@H]([C@@H](C)O)NC(=O)[C@H](CC(N)=O)NC(=O)[C@H](NC(C)=O)CCCCNC(=O)C[C@@H](C(=O)N[C@@H](CC(N)=O)C(N)=O)NC(=O)C(C)(C)NC(=O)[C@H](Cc3ccc4ccccc4c3)NC2=O)cc1
B4: peptide compound SEQ ID NO: 17 (peptide)
peptide: Ac-[dK]NTWQR[Tyr(Me)″][1Nal]K(Ac)DNN-NH2
modifications: lactam 1-10
SMILES: COc1ccc(C[C@@H]2NC(=O)[C@H](CCCNC(=N)N)NC(=O)[C@H](CCC(N)=O)NC(=O)[C@H](Cc3c[nH]c4ccccc34)NC(=O)[C@H]([C@@H](C)O)NC(=O)[C@H](CC(N)=O)NC(=O)[C@H](NC(C)=O)CCCCNC(=O)C[C@@H](C(=O)N[C@@H](CC(N)=O)C(=O)N[C@@H](CC(N)=O)C(N)=O)NC(=O)[C@H](CCCCNC(C)=O)NC(=O)[C@H](Cc3cccc4ccccc34)NC2=O)cc1
notes: synthetic macrolactam
B5: peptide compound SEQ ID NO: 30 (peptide)
peptide: Ac-[dK]NTWQR[Tyr(Me)″][2Nal]QDNN-NH2
modifications: lactam 1-10
SMILES: COc1ccc(C[C@@H]2NC(=O)[C@H](CCCNC(=N)N)NC(=O)[C@H](CCC(N)=O)NC(=O)[C@H](Cc3c[nH]c4ccccc34)NC(=O)[C@H]([C@@H](C)O)NC(=O)[C@H](CC(N)=O)NC(=O)[C@H](NC(C)=O)CCCCNC(=O)C[C@@H](C(=O)N[C@@H](CC(N)=O)C(=O)N[C@@H](CC(N)=O)C(N)=O)NC(=O)[C@H](CCC(N)=O)NC(=O)[C@H](Cc3ccc4ccccc4c3)NC2=O)cc1
notes: synthetic macrolactam
B6: peptide compound SEQ ID NO: 19 (peptide)
peptide: Ac-[dK]NTWQR[Tyr(Me)″][1Nal]QDNN-NH2
modifications: lactam 1-10
SMILES: COc1ccc(C[C@@H]2NC(=O)[C@H](CCCNC(=N)N)NC(=O)[C@H](CCC(N)=O)NC(=O)[C@H](Cc3c[nH]c4ccccc34)NC(=O)[C@H]([C@@H](C)O)NC(=O)[C@H](CC(N)=O)NC(=O)[C@H](NC(C)=O)CCCCNC(=O)C[C@@H](C(=O)N[C@@H](CC(N)=O)C(=O)N[C@@H](CC(N)=O)C(N)=O)NC(=O)[C@H](CCC(N)=O)NC(=O)[C@H](Cc3cccc4ccccc34)NC2=O)cc1
notes: synthetic macrolactam
B7: peptide compound SEQ ID NO: 18 (peptide)
peptide: Ac-[dK]NTWQR[Tyr(Me)][1Nal][Cit]DNN-NH2
modifications: lactam 1-10
SMILES: COc1ccc(C[C@@H]2NC(=O)[C@H](CCCNC(=N)N)NC(=O)[C@H](CCC(N)=O)NC(=O)[C@H](Cc3c[nH]c4ccccc34)NC(=O)[C@H]([C@@H](C)O)NC(=O)[C@H](CC(N)=O)NC(=O)[C@H](NC(C)=O)CCCCNC(=O)C[C@@H](C(=O)N[C@@H](CC(N)=O)C(=O)N[C@@H](CC(N)=O)C(N)=O)NC(=O)[C@H](CCCNC(N)=O)NC(=O)[C@H](Cc3cccc4ccccc34)NC2=O)cc1
B8: peptide compound SEQ ID NO: 38 (peptide)
peptide: Ac-[Orn]NTWQR[AEF][2Nal][Aib]ENN-NH2
modifications: lactam 1-10
SMILES: CC(=O)N[C@H]1CCCNC(=O)CC[C@@H](C(=O)N[C@@H](CC(N)=O)C(=O)N[C@@H](CC(N)=O)C(N)=O)NC(=O)C(C)(C)NC(=O)[C@H](Cc2ccc3ccccc3c2)NC(=O)[C@H](Cc2ccc(OCCN)cc2)NC(=O)[C@H](CCCNC(=N)N)NC(=O)[C@H](CCC(N)=O)NC(=O)[C@H](Cc2c[nH]c3ccccc23)NC(=O)[C@H]([C@@H](C)O)NC(=O)[C@H](CC(N)=O)NC1=O
B9: peptide compound SEQ ID NO: 28 (peptide)
peptide: Ac-[dK]NTWQR[Tyr(Me)″][2Nal]K(Ac)DNN-NH2
modifications: lactam 1-10
SMILES: COc1ccc(C[C@@H]2NC(=O)[C@H](CCCNC(=N)N)NC(=O)[C@H](CCC(N)=O)NC(=O)[C@H](Cc3c[nH]c4ccccc34)NC(=O)[C@H]([C@@H](C)O)NC(=O)[C@H](CC(N)=O)NC(=O)[C@H](NC(C)=O)CCCCNC(=O)C[C@@H](C(=O)N[C@@H](CC(N)=O)C(=O)N[C@@H](CC(N)=O)C(N)=O)NC(=O)[C@H](CCCCNC(C)=O)NC(=O)[C@H](Cc3ccc4ccccc4c3)NC2=O)cc1
notes: synthetic macrolactam

Each binder was assayed against T1, IL-23 receptor on the surface of … (assay: cell-based or functional assay).

Binder | Inhibition of IL-23 induced pSTAT3 (IC50 nM) [nM]
B1 | 1380
B2 | 1610
B3 | 8110
B4 | 5650
B5 | 6050
B6 | 9600
B7 | 10000
B8 | 1570
B9 | 2210
Ac-[dK]NTWQRY[2Nal][Aib]DNN-NH2 (lactam 1-10, synthetic macrolactam) [peptide compound SEQ ID NO: 4] | 339

What follows are binders tested against T2, recombinant human IL-23R-Fc chimera (assay: competition ELISA: coated human IL-23, IL-23R-Fc 0.1 ug/ml, peptide titrated).
Method: Antagonism of peptide compounds for human interleukin-23 receptor inhibitors, was determined by an ELISA assay.
A 384-well plate was coated with 50 μl/well of human IL-23 at a final concentration of 1 μg/ml and incubated overnight at 4° C. The wells were washed 3 times with 80 μl wash buffer and blocked with 80 μl blocking buffer for 60 minutes at room temperature and washed again. 20 μl of serially diluted test peptides was added to each well and subsequently 20 μl of recombinant human IL-23R-Fc chimera at final concentration of 0.1 μg/ml. The plate was incubated for 60 minutes at room temperature. After the wells were washed, bound IL-23R-Fc was detected with goat anti-hu-lgG1-HRP antibody. Signals were visualized with QuantaBlu Fluorogenic Peroxidase Substrate.

Binder | IC50 [nM]
B1 | 5.42
B2 | 3.55
B3 | 18.8
B4 | 7.87
B5 | 9.64
B6 | 15.6
B7 | 11.8
B8 | 12.5
B9 | 9.03
Ac-[dK]NTWQRY[2Nal][Aib]DNN-NH2 (lactam 1-10, synthetic macrolactam) [peptide compound SEQ ID NO: 4] | 1.59
